T1: soluble CD73 protein (ACRO, CD3-H52H7) (human, UniProt P21589 27-547)
T1 sequence (looked up): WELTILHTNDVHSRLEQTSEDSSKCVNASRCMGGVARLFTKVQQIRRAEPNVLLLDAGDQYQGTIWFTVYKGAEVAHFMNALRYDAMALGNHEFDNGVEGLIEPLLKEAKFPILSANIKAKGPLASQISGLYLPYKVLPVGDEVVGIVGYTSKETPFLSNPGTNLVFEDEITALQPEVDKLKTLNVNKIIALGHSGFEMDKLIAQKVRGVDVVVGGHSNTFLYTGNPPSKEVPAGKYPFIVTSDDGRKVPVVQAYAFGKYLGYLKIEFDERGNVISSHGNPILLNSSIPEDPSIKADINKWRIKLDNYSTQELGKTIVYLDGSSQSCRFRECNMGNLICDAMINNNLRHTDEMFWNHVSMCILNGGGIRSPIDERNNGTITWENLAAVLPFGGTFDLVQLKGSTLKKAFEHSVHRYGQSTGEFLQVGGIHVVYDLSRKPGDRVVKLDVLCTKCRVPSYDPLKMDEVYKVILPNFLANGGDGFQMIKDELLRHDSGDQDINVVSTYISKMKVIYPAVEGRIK

T2: human CD73 expressed on the cell surface (human, UniProt P21589 27-549)
T2 sequence: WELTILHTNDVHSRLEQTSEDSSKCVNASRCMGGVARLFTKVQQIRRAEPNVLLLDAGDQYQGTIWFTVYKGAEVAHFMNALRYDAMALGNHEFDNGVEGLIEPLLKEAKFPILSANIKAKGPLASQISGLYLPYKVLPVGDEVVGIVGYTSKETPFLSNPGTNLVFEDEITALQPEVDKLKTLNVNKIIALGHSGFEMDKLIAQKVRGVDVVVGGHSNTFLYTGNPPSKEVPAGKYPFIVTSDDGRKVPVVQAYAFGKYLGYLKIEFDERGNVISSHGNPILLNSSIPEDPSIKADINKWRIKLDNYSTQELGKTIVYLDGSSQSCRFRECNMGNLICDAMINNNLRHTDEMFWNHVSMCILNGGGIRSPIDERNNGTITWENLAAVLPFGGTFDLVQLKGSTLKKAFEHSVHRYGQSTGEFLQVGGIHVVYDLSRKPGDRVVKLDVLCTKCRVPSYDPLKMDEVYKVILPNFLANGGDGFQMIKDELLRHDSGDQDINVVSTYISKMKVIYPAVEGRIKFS

T3: CD73 mutant Y161A/K162A/V170A (human, UniProt P21589 27-549)
T3 construct: As m43; also called mutant 3
T3 chain: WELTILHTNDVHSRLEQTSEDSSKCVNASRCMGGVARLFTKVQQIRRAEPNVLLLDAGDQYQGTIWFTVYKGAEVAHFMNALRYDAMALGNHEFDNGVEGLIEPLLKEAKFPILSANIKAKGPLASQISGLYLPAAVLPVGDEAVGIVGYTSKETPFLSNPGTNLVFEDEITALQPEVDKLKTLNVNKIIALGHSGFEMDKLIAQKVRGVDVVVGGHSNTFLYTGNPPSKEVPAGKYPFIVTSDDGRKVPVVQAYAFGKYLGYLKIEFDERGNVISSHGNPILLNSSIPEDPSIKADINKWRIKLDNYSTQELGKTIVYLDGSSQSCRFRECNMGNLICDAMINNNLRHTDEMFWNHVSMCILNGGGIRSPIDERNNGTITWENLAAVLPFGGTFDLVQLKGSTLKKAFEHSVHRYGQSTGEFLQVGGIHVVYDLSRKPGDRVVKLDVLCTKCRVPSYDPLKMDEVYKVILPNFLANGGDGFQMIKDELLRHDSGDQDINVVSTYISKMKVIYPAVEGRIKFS

T4: CD73 mutant L159A/Y161A/K162A/V170A (human, UniProt P21589 27-549)
T4 construct: As m43; also called mutant 16
T4 chain: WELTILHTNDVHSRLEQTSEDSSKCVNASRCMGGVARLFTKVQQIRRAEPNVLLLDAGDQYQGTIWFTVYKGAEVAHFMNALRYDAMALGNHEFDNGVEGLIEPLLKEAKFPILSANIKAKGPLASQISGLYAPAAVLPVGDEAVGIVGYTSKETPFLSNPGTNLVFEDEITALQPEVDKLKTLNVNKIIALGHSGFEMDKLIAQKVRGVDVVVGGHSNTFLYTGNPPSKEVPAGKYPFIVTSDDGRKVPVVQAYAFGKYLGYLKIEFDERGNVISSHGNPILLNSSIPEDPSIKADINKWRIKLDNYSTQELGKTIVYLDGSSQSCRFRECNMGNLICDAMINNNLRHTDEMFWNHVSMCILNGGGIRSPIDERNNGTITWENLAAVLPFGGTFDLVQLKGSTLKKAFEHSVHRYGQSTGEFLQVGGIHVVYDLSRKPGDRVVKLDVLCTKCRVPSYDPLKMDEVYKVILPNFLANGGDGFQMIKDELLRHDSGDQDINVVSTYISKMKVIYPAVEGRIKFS

T5: CD73 mutant K136A/Y161A/K162A/V170A (human, UniProt P21589 27-549)
T5 construct: As m43; also called mutant 13
T5 chain: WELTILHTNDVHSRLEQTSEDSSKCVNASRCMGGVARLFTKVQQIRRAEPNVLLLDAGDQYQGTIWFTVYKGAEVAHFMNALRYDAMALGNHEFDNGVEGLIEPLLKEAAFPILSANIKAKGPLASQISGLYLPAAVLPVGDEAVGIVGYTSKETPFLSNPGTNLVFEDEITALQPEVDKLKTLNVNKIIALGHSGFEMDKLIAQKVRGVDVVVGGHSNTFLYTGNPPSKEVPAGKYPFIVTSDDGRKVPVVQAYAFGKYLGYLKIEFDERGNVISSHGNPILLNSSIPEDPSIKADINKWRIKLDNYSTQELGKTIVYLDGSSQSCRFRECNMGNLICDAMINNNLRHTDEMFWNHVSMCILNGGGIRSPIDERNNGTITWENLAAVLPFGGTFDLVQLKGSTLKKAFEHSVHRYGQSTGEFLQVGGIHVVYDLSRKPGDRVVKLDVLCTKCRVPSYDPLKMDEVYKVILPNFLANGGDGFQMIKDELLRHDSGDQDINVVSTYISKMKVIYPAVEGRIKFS


What was measured:
[1] = biological target: T1, soluble CD73 protein (ACRO, CD3-H52H7); test: cell-based or functional assay
[2] = biological target: T2, human CD73 expressed on the cell surface; test: cell-based or functional assay
[3] = biological target: T2, human CD73 expressed on the cell surface; test: cell-based or functional assay; remark: listed apart in the source
[4] = biological target: T3, CD73 mutant Y161A/K162A/V170A; test: flow cytometry, GS-CHO cells with CD73 mutant
Description: (§1) After washing three more times with PBS, the cells were resuspended in 100 ul PBS. (4) The average fluorescence value was measured in PE channel by flow cytometer. The Log₁₀ of antibody concentration was used as the horizontal coordinate and the average fluorescence value of the PE channel was used as the vertical coordinate to plot a curve, and the EC50 and the peak of the curve were compared.

[5] = biological target: T4, CD73 mutant L159A/Y161A/K162A/V170A; test: flow cytometry, GS-CHO cells with CD73 mutant
Description: as §1

[6] = biological target: T5, CD73 mutant K136A/Y161A/K162A/V170A; test: flow cytometry, GS-CHO cells with CD73 mutant
Description: as §1

Binder	IC50, enzymatic activity of soluble CD73 at 1 hour [1]	IC50, enzymatic activity of CD73 on NCI-H292 cells [2]	IC50 for inhibiting the enzymatic activity of CD73 (Calu-6 cells) [3]	binding result [4]	binding result [5]	binding result [6]
ADI-37505 (antibody, human IgG4 S228P, kappa, F234A L235A, V domains shown) VH: QVQLVESGGGLVQPGGSLRLSCAASGFTFSNYAMTWVRQAPGKGLEWVSAISGRGTATYYADSVKGRFTISRDNSKNTLYLQMNSLRAEDTAVYYCARGGPYGSGSYWDTFDYWGQGTLVTVSS VL: EIVMTQSPATLSVSPGERATLSCRASQSVSSNLAWYQQKPGQAPRLLIYGASTRATGIPARFSGSGSGTEFTLTISSLQSEDFAVYYCQQYTNHYTFGGGTKVEIKR	0.0718 nM	1.47 nM	0.076 µg/mL	binds	binds	binds
ADI-37506 (antibody, human IgG4 S228P, kappa, F234A L235A, V domains shown) VH: EVQLLESGGGLVQPGGSLRLSCAASGFTFSNLAMSWVRQAPGKGLEWVSAISGRATSTYYADSVKGRFTISRDNSKNTLYLQMNSLRAEDTAVYYCARGGPYGSGSYWDTFDYWGQGTLVTVSS VL: EIVMTQSPATLSVSPGERATLSCRASQSVSSNLAWYQQKPGQAPRLLIYGASTRATGIPARFSGSGSGTEFTLTISSLQSEDFAVYYCQQYTNHYTFGGGTKVEIKR	0.0897 nM	1.27 nM	0.073 µg/mL	binds	binds	binds

Reference: patent US20230312741A1 (published 2023)
